Measurements published in patent publication US5763271A, “Vasodilatory and immune suppressant peptides” (The President and Fellows of Harvard College, priority 1994, dated 1998).
Where no end group is shown, it is not given here.

B1: recombinant LP protein: LP protein, substantially the amino acid sequence of SEQ ID NO:4, expressed in E. coli as a polyHis fusion protein (protein)
chain: MKYSLNNLHFLVDVAEGCDATCQFRKAIEDCRKKAHHSDVLQTSVQTTATFTSMDTSQLPGSGVFKECMKEKAKEFKAGK
modifications: polyHis tag

Columns and labels:
human macrophages = experiment: H2O2 production by IFN-γ activated macrophages (scopoletin fluorometric assay); type: cell-based; conditions: 3 hrs preincubation, IFN-γ 200 units/ml, 3 days
Protocol: Monocytes obtained by leukophoresis of healthy volunteers were purified on Ficoll-hypaque and Percoll (Pharmacia, Piscataway, N.J.) gradients and placed into microtiter well (5×10^5 /well) in RPMI-1640 (GIBCO, Grand Island, N.Y.) with 5% pooled normal human serum and 1% gentamycin (M. A. Bioproducts, Walkinville, Md.). The cells were greater than 95% macrophages as judged by esterase staining. […] After one day in culture, non-adherent cells were rinsed away and the macrophages were treated, e.g., with human CGRP, Calcitonin, or LP as described below. Following treatment, the macrophages were incubated for three days with a concentration of from 100 to 400 units interferon gamma (Amgen Biologicals, Thousand Oaks, Calif.), in medium with 15% pooled normal human serum, at which time the H2 O2 concentration in the cells was determined.
H2 O2 production by macrophages was determined by fluorometric assay using the fluorophore scopoletin (de la Harpe et al., J. Immunol. Methods 78: 323 (1985)). […] The amount of H2 O2 released per culture is determined as nanomoles H2 O2. […]
Human macrophage monolayers were pretreated for three hours with varying concentrations of human CGRP. […] The amount Of H2 O2 produced by the cells was then determined according to the above procedure. […]

Leishmania major = experiment: Exacerbation of cutaneous leishmaniasis (footpad lesion size); type: in vivo, CBA mice; conditions: 80 pg admixed with 10^5 L. major promastigotes, subcutaneous
Protocol: In order to assay for immunosuppressive activity, the recombinant LP protein described in subsection A above was tested for the ability to exacerbate infection of mice with Leishmania major substantially as described in Titus et al. (1988) Science 239, 1306 and Theodos et al. (1991) Infect. Immun. 59, 1592-1598.
Briefly, groups of 4 CBA mice each were injected subcutaneously in the footpad with 10^5 L. major promastigotes alone or 10^5 parasites admixed with 80 pg of LP protein. Lesion development was followed by measuring the increase in thickness of the injected footpad compared to the thickness of the contralateral uninjected control footpad.

RAW 264.7 cell line = experiment: Inhibition of nitric oxide production by LPS-stimulated macrophages (Greiss reaction); type: cell-based; conditions: 10^6 to 10^1 pg/ml; LPS 1 μg/ml; nitrite 2 hours later
Protocol: Macrophage cells from the RAW 264.7 cell line (Drapier et al. (1988) J. Immunol. 140:2829) were preincubated with various concentrations of LP protein as indicated in FIG. 8. The cells were then stimulated with 1 μg/ml lipopolysaccharide […] (LPS) and NO production was monitored 2 hours later by measuring nitrite in the supernatants of the cultures. Nitrite was measured by the method described in Ding et al. (1988) J. Immunol. 141:2407. Briefly, levels of nitrite in the supernatants of the cultures were assessed by the Greiss reaction as follows. 50 μl cell culture supernatants were mixed with 50 μl of Greiss reagent [1% sulfanilamide, 0.1% N-(1-naphthyl)ethyl-enediamine dihydrochloride in 2.5% phosphoric acid] and incubated at room temperature for 10 minutes. Absorbance was measured at 570 nm. Concentration of NO2 in the supernatant was determined by comparison to a standard curve generated with dilutions of NaNO2.

Molecule | inhibition of H2O2 production by macrophages (human macrophages) | effect on Leishmania infection (size of footpad lesions) (Leishmania major) | NO production by macrophages preincubated with the protein (RAW 264.7 cell line)
calcitonin (CGNLSTCMLGTYTQDFNKFHTFPQTAIGVGAP; ends and bridges not checked; cysteine pairing not given here; UniProt P01258 85-116, looked up) [neuropeptide derived from the same gene as CGRP, available commercially] | to a degree similar to that seen with CGRP |  | 
B1 |  | greatly exacerbated | significant decrease
